For eight molecules, Kd, koff and kon results are on record in publication PMC9712689 (Communications Biology, 2022).

T1: RlpA-Δ32 (P. aeruginosa PAO1, UniProt Q9X6V6 32-342)
T1 construct: source: E. coli BL21-star (DE3), purified (Ni-NTA)
T1 sequence: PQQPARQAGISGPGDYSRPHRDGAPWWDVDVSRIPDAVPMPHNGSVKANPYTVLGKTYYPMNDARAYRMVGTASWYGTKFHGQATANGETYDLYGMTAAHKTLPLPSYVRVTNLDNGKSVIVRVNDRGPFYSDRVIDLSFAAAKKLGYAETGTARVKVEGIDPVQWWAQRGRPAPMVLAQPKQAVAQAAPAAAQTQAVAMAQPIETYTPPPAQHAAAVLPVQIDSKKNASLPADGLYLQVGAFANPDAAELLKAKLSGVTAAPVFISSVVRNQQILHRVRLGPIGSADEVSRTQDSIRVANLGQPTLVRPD

T2: RlpA-Δ32·MltF2 complex (MST) (P. aeruginosa PAO1, UniProt Q9X6V6;Q9HZY1, amine reactive RED-NHS dye)
T2 sequence 1: T1 sequence
T2 sequence 2: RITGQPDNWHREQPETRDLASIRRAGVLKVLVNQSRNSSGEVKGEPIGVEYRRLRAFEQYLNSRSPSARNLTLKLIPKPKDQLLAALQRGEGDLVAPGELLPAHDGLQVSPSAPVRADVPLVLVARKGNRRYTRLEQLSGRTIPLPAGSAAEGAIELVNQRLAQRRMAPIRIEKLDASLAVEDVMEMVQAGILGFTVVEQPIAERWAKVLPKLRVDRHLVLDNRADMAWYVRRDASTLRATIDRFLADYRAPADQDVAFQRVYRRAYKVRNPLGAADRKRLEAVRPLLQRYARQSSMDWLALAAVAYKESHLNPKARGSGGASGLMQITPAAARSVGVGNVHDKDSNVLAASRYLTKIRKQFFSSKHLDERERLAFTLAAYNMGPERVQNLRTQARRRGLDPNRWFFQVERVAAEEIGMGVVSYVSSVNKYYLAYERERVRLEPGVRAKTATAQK

T3: RlpA-Δ32, fluorescently labeled (P. aeruginosa PAO1, UniProt Q9X6V6 32-342, amine reactive RED-NHS dye)
T3 construct: source: E. coli BL21-star (DE3), purified (Ni-NTA), labelled with RED-NHS dye
T3 sequence: T1 sequence

T4: TypA (P. aeruginosa PAO1, UniProt Q9HU67 1-605)
T4 sequence (looked up): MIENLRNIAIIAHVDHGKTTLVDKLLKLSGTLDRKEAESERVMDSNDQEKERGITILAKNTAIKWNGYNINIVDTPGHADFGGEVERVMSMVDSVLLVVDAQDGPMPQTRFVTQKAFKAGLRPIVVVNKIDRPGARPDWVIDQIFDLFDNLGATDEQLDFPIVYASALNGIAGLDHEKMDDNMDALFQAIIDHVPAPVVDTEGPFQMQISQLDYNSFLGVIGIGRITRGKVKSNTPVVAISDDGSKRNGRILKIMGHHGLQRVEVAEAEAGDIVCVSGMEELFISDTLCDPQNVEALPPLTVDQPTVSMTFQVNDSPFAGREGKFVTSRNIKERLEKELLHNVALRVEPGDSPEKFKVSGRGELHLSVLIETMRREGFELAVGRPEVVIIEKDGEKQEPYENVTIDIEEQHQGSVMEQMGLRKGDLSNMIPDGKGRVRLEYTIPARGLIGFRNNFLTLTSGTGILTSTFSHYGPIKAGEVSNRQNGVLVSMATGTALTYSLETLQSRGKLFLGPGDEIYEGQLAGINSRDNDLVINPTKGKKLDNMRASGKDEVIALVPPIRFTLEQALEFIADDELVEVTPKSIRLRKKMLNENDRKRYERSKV

T5: MltF2 (P. aeruginosa PAO1, UniProt Q9HZY1 1-476)
T5 sequence (looked up): T2 sequence 2

T6: MltD (P. aeruginosa PAO1, UniProt Q9I2T2 1-534)
T6 sequence (looked up): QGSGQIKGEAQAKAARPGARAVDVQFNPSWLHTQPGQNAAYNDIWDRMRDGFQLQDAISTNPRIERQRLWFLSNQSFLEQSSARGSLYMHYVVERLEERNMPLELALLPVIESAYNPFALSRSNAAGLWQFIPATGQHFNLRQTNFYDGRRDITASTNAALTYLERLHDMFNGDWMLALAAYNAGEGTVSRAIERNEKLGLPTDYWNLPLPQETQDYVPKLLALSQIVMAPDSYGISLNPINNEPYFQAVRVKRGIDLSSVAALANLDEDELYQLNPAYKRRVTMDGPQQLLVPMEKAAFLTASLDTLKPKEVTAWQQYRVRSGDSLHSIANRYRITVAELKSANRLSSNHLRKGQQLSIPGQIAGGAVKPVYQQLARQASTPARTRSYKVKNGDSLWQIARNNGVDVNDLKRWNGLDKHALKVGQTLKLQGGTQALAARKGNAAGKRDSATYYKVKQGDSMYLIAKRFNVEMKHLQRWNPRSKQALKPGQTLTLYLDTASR

B1: PilO (natural protein)
chain: YNFHLSDMQAQLEQQAAEEETLKQQFSTKAFQAANLEAYKAQMKEMEESFGALLRQLPSDTEVPGLLEDITRTGLGSGLEFEEIKLLPEVAQQFYIELPIQISVVGGYHDLATFVSGVSSLPRIVTLHDFEIKPVAPGSTSKLRMSILAKTYRYNDKGLKK
notes: source: E. coli, purified (Ni-NTA or Strep-Tactin)
B2: PBP7 (enzyme, P. aeruginosa PAO1, UniProt P72161 24-310, looked up)
chain: SPPPKAGLPLQQELASGSALVTDQNTGKVLYSRNPDLVVPIASITKLMTAMVVLDSKLPLDEVLPIAISETSEMRGVFSRVRVGSQISRRDMLLLALMSSENRAAASLAQNYPGGKNAFVKAMNAKAHALGMKNTRYVEPTGLSLHNVSTARDLTRLLVASRQYPLLSQWSTTPEKTVAFRHPNYTLGFRNTNHLINNKTWNIQLTKTGFTNEAGHCLVMRTTINRSPVNLVVLDAFGKYTHFADATRLRRWLETGQVTAIPAAAKAYRLQRDRERGLGQPVAQAVR
B3: PA2854 (natural protein)
chain: LELQLPPPGEDVVGQVQVIKAKYEDTFADLGEQYNLGYSEMVAANPGVDPWLPGVGTEVIIPTRFVLPPGPREGVVINLAEYRLYYYPKGQNVVHTYPLGIGREGWGSPIANTRITAKTKDPAWYPPASIRAEHAADGDPLPTVVPPGPDNPLGPYKLTLGVPGYLIHGSNKKFGIGTRTSHGCFRMYNADVTHLFSMISVGTSVRIINEPYKFGVSNGKVYLEAHTPLNDHGDPSVVDKHTAVINTLLKRDDLAKRIQLNWDVVREVVASEDGVPVEIAQESAPAMTATVDSDPTQLTP
notes: as for B1
B4: SltB1 (enzyme, P. aeruginosa PAO1, UniProt Q9HX24 1-340, looked up)
chain: GDYDGSPQVAEFVSEMTRDYGFAGEQLMGLFRDVNRKQSILDAISRPAERVKQWKEYRPIFISDARISRGVDFWNKHAEDLARAEKEYGVPAEIIVSIIGVETFFGRNTGSYRVMDALSTLGFDYPPRADFFRKELREFLLLAREQQVDPLSLTGSYAGAMGLPQFMPSSFRAYAVDFDGDGHINIWSDPTDAIGSVASYFKQHGWVTGEPVVSVAEINDESAESAVTRGVDPTMSLGELRARGWRTHDALRDDQKVTAMRFVGDKGIEYWVGLPNFYVITRYNRSAMYAMAVYQLAGEIARARGAH
B5: RlpA-Δ81 (domain or fragment)
chain: YTVLGKTYYPMNDARAYRMVGTASWYGTKFHGQATANGETYDLYGMTAAHKTLPLPSYVRVTNLDNGKSVIVRVNDRGPFYSDRVIDLSFAAAKKLGYAETGTARVKVEGIDPVQWWAQRGRPAPMVLAQPKQAVAQAAPAAAQTQAVAMAQPIETYTPPPAQHAAAVLPVQIDSKKNASLPADGLYLQVGAFANPDAAELLKAKLSGVTAAPVFISSVVRNQQILHRVRLGPIGSADEVSRTQDSIRVANLGQPTLVRPD
notes: source: E. coli BL21-star (DE3), purified (Ni-NTA)
B6: LptE (natural protein)
chain: not shown
B7: PilA (natural protein)
chain: PQYQNYVARSEGASALATINPLKTTVEESLSRGIAGSKIKIGTTASTATETYVGVEPDANKLGVIAVAIEDSGAGDITFTFQTGTSSPKNATKVITLNRTADGVWACKSTQDPMFTPKGCDN
notes: as for B1
B8: PA4063 (natural protein)
chain: HDDHDHDHAHGSLGKHEHGVAQLNVALDGKTLELELDSPAMNLVGFEHAASTDADKAAVAKARAQLEKPLELFALPVTAGCSVASQELRSPLFGDKAPAHAHKEKAGHEHEHEHEHEHGHADIHAHYQLSCEKPELLKLLTLAEFFKRFPATQKIQVQLIGPDGQKGADLAPASAELKL
notes: as for B1

What all share (conditions): both partners purified
Assay [1] has as its target B5. Briefly: SPR. For orientation: Surface plasmon resonance follows binding to a sensor surface in real time, without labels.
Assay [2] concerns the target T1, RlpA-Δ32. Briefly: SPR.
Assay [3] has as its target T2, RlpA-Δ32·MltF2 complex (MST). Briefly: MST.
In assay [4] the target is T3, RlpA-Δ32, fluorescently labeled. In words: MST.
Assay [5] has as its target T4, TypA. In words: SPR.
For assay [6], the target named is PBP1a (P. aeruginosa PAO1, UniProt Q07806 27-822). In words: SPR.
Sequence of PBP1a (Q07806 27-822): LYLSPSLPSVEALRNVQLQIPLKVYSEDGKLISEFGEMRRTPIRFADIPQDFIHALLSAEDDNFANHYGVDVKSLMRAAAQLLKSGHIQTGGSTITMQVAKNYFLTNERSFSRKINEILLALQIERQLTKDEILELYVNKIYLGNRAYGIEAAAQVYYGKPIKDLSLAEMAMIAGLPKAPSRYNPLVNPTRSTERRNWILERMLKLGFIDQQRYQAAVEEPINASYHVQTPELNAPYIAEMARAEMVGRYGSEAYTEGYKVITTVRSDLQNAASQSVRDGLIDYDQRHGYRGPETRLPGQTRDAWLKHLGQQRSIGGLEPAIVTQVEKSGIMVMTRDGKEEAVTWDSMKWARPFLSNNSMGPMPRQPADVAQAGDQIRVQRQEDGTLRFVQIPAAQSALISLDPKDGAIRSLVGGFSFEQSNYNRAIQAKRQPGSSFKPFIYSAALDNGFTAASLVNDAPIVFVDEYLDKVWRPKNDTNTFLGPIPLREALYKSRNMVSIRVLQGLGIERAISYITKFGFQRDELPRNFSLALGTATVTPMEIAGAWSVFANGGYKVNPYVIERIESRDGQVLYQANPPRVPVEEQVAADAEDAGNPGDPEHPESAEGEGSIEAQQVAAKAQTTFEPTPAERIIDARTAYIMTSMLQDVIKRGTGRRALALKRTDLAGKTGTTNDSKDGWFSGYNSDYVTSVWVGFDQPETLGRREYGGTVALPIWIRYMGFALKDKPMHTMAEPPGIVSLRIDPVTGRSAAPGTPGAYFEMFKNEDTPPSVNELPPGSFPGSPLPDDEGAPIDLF
Assay [7] addresses B3. In words: SPR.
For assay [8], the target named is T5, MltF2. Briefly: SPR.
For assay [9], the target named is T6, MltD. Briefly: SPR.

Consider B1, for which the Kd came to 1010 nM in [1], 3130 nM in [2], 208 nM in assay [3] and 350 nM in assay [4]. Further, the koff stood at 0.00076 s⁻¹ in assay [1] and 0.00275 s⁻¹ in [2]. Also, the kon in assay [1] stood at 750 M⁻¹ s⁻¹; in assay [2] it was 880 M⁻¹ s⁻¹.

B2 yielded an on-rate (kon) in assay [2] of 5900 M⁻¹ s⁻¹. The Kd in assay [4] worked out at 430 nM.

For the molecule B3, the Kd is 65 nM in [2], 55 nM in [3] and 58 nM in [4]. For the same molecule, in assay [2], the koff was determined as 0.00032 s⁻¹. In assay [2], this molecule gave a kon of 4900 M⁻¹ s⁻¹.

Regarding B4, in assay [2], the affinity, expressed as Kd, was 3850 nM; the koff was 0.00127 s⁻¹; the kon is 330 M⁻¹ s⁻¹. In assay [3], this molecule showed a dissociation constant (Kd) of 95 nM. The Kd in [4] was 140 nM.

Regarding B5, the equilibrium dissociation constant (Kd) was found to be 74 nM in assay [5]; 94 nM in assay [6]; 2270 nM in assay [7]; 3 nM in [8]; 56 nM in assay [9]. Besides, the off-rate constant (koff) in assay [5] was determined as 0.00047 s⁻¹; in assay [6] it was 0.00177 s⁻¹; in [7], 0.00075 s⁻¹; in assay [8] it was 4e-05 s⁻¹; in [9] it was 0.0039 s⁻¹. Moreover, the kon in [5] stood at 6400 M⁻¹ s⁻¹; in assay [6] it was 18800 M⁻¹ s⁻¹; in assay [7], 330 M⁻¹ s⁻¹; in assay [8], 14900 M⁻¹ s⁻¹; in [9], 69000 M⁻¹ s⁻¹.

For B6, the dissociation constant Kd in assay [3] was found to be 150 nM; in [4], 77 nM.

Take B7: in [2], the Kd is 1980 nM, the koff turned out to be 0.00218 s⁻¹ and the on-rate constant (kon) worked out at 1100 M⁻¹ s⁻¹. The molecule also gave a dissociation constant Kd in assay [3] of 309 nM. Moreover, the affinity in [4], expressed as Kd, was 240 nM.

As to B8, the Kd is 1080 nM in [1], 810 nM in [2], 105 nM in [3] and 201 nM in assay [4]. Also, the dissociation rate constant (koff) in assay [1] was determined as 0.00194 s⁻¹; in assay [2] it was 0.00145 s⁻¹. Also, the kon in assay [1] and in assay [2] was 1800 M⁻¹ s⁻¹ throughout.

For orientation: Kd means a measure of binding affinity in units of concentration. Higher therefore signals lower affinity. One may read the koff as the rate constant with which the complex falls apart. Low readings indicate a long-lived complex, high ones a short-lived complex. Usually kon stands for the second-order rate constant of association.
